Measured values: the PETadex activity labels (doi:10.1002/cbic.201800097)
Positions count from the first letter of the chain named.

B1: unnamed (protein)
chain: NPYARGPNPTAASLEASAGPFTVRSFTVSRPSGYGAGTVYYPTNAGGTVGAIAIVPGYTARQSSIKWWGPRLASHGFVVITIDTNSTLDQPSSRSSQQMAALRQVASLNGTSSSPIYGKVDTARMGVMGWAMGGGGSLISAANNPSLKAAAPQAPWDSSTNFSSVTVPTLIFACENDSIAPVNSSALPIYDSMSRNAKQFLEINGGSHSCANSGNSNQALIGKKGVAWMKRFMDNDTRYSTFACENPNSTRVSDFRTANCS
B2: unnamed (protein)
chain: B1 chain with W130A, A131S
B3: unnamed (protein)
chain: B1 chain with A131S, D177A

Substrate: BHET
Assay: Proxy for plastic degradation [Released monomer concentration (HPLC/LC-MS) (MHET+TPA)]
Settings: pH 7.5

Protein	Proxy for plastic degradation [µM]
B1	0.06
B2	0.23
B3	0.03
